Results from publication doi:10.1101/2022.02.25.482063.

Target: motavizumab
Assay: SPR

RSV F glycoprotein S275H, on virions of recombinant RSV-A2 mKate2 (natural protein)
fold reduction of the on-rate (ka) against WT: > 6 fold
